The target in this experiment is soluble amyloid precursor protein alpha (UniProt P05067). Kind of experiment: sandwich ELISA, EC50 of this antigen divided by EC50 of Aβ(1-42) globulomer.

B1: monoclonal antibody 8C5 (antibody, V domains shown)
VH: EVQLVESGGGLVQPGGSLKLSCTASGFTFSSYGMSWVRQTPDKRLELVASIKNNGGSTYYPDSLKGRFTISRDNAKNTLYLQMSSLKSEDTAMYYCASGDYWGQGTTLTVSS
VL: DVVMTQTPLSLPVSLGDQASISCRSSQSLVHSNGDTFLHWYLQKPGQSPKLLIYKVSNRFSGVPDRFSGSGSGTDFTLKISRVEAEDLGIYFCSQSIHVPWTFGGGTKLEIKR
With B1, the selectivity factor (EC50 ratio against Aβ(1-42) globulomer) was > 100 fold.

B2: monoclonal antibody 8F5 (antibody, V domains shown)
VH: EVQLVESGGGLVQPGGSLKLSCAASGFTFSSYGMSWVRQTPDKRLELVASINSNGGSTYYPDSVKGRFTISRDNAKNTLYLQMSSLKSEDTAMYYCASGDYWGQGSTLTVSS
VL: DVVMTQTPLSLPVSLGDQASISCRSSQSLVYSNGDTYLHWYLQKPGQSPKLLIYKVSNRFSGVPDRFSGSGSGTDFTLKISRVEAEDLGVYFCSQSTHVPWTFGGGTKLEIKR
For B2, the selectivity factor (EC50 ratio against Aβ(1-42) globulomer) was > 100 fold.

For the origin of these results see patent US8497072.
